The data set concerns the molecule itself. The data set is described as follows: cryo-EM structure.

B1: Streptomyces coelicolor bacterioferritin (natural protein, UniProt Q9S2N0 1-167, looked up)
chain: MQGDPEVIEFLNEQLTAELTAINQYFLHAKLQDHKGWTKLAKYTRAESFDEMRHAEVLTDRILLLDGLPNYQRLFHVRVGQSVTEMFQADREVELEAIDRLRRGIEVMRAKHDITSANVFEAILADEEHHIDYLETQLDLIEKLGESLYLSTVIEQTQPDPSGPGSL
B1: the stoichiometry N (commonly a count of units in the complex or per binding partner) is 24.

(Values after doi:10.1101/2021.02.04.429857 (bioRxiv, 2021).)
